Results: paper PMC10966536

Tested on: NmPAL (PAS-ANTAR-LOV photoreceptor) (Nakamurella multipartita)
Assay: fluorescence anisotropy
Details: FA: 4 nM RNA, 12 mM HEPES/HCl pH 7.7, 135 mM KCl, 10 mM NaCl, 1 mM MgCl2, 10% w/v glycerol, 100 ug/mL BSA, dark, or after 60 s blue light (465 nm), temperature …

ACCUUCGGUUCAGCUGCGAGCCG [58.M21, TAMRA]
Kd (blue light, text says 83-fold reduced): 250 nM

ACCUUCGGUUCAGCAGCGAGCCG [58 (motif 3), TAMRA]
Kd (blue light, two-site fit, high-affinity site (second transition micromolar)): 3.5 nM
Kd (darkness, text elsewhere calls this micromolar binding): > 3000 nM
